# Assay results taken from US20240279332A1 (Amgen, published 2024).
# T1: cyno TREM-1 on cells (cynomolgus monkey, UniProt A0A2K5VHG8 21-233)
# T1 sequence: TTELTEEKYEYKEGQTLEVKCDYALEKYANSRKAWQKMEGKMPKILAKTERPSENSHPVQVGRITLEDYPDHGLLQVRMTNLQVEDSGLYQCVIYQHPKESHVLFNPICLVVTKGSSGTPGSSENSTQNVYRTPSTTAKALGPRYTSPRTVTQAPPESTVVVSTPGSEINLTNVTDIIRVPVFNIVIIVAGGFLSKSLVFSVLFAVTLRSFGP
# Target: T1, cyno TREM-1 on cells
# Assay: cell-based or functional assay
Binder,"Ab IC50-Cyno PBMC (Trial 2), TNFα release after cyno PGLYRP1/PGN","Ab IC50-Cyno PBMC (Trial 1), TNFα release after cyno PGLYRP1/PGN"
"66B8 (antibody, V domains shown) VH: QVQLVQSGAEVKKPGASVKVSCKASGYTFTGYYMHWVRQAPGQGLEWMGWFKPNSGVTNYAQKFQGRVTMSRDTSISTAYMELSSLRSDDTAVYYCARAGYSTSWKDWFDPWGQGTLVTVSS VL: DIQMTQFPSSVSASVGDRVTITCRASQGISRWLAWYQQKQGKAPKLLIYMVSSLQSGVPSRFSGSGSGTDFTLTISSLQPEDFATYYCQQSHNFPITFGQGTRLDIKR",23.2 pM,114 pM
"30H2 (antibody, V domains shown) VH: EVQVLESGGGLVQPGESLRLSCTASGFTFNAYAMSWVRQAPGKGLEWVSTISGSGSTTYYADSVKGRFTISRDNSKNTLDLQMNSLRAADTAVYYCAKVAGSNFFFDHWGQGTLVTVSS VL: EIVMTQSPATLSVSPGERATLSCRASQSINSNLAWYQQKPGQAPRLLIYGAYTRATGIPDRFSGSGSGTEFTLTISSLQSEDFAVYYCQEFIMWPPWTFGLGTQVEIKR",–,3770 pM
"46H7 (antibody, V domains shown) VH: EVQLLESGGGMVQPGGSLRLSCAVSGFTFSRYAMSWVRQAPGKGLEWVSEMRGSSGSTYYADSVKGRFTISRDNSKNTLYLQMNSLRVEDTAIYYCAKEFSSNSLFDYWGQGTLVTVSS VL: EIVMTQSPATLSVSPGERATLSCRASQSVNSNLAWYQQKPGRAPRLLIYGASTRATGIPARFSGSGSGTEFTLTISSLQSEDFAVYYCQQFYNWPPWTFGQGTKVEIKR",9.7 pM,95.1 pM
"44A5 (antibody, V domains shown) VH: EVQLLESGGGLVQPGGSLRLSCAASGFTFSTYAMNWVRQAPGKGLEWVSTVSGSGRPTYYADSVKGRFTISRDNSKNTLYLQMNSLRAEDTAVYYCAKAYYSNYLFDYWGQGTLVTVSS VL: EIVMTQSPAILSVSPGERATLSCRASQSVSSNLAWYQQKPGQAPRLLIYGASTRATGVPARFSGGGSGTDFTLTISSLQSEDFAVYYCQHCKTWPPLTFGGGTKVDLKR",9.1 pM,57.9 pM
"64D7 (antibody, V domains shown) VH: QVQLVQSGAEVKKPGASVKVSCKASGYTFTSYDINWVRQATGQGLEWMGWMNPNRGNTGYVKKFQGRVTMTRNTSISTAYMELSSLRSEDTAVYYCARRRAVYRSSWEWYFDLWGRGTLVTVSS VL: DTQMTQSPSSLSASEGDRVTITCQASQDIFNDLNWYQEKPGKAPKLLIYHASNLETGVPSRFSGSGSGTDYTFTISSLQPEDIATYYCQQYGNLPLTFGGGTKVEIKR",780 pM,6940 pM
"63F8 (antibody, V domains shown) VH: QVQLVQSGAEVKKPGASVKVSCKASGYTFTSYDINWVRQATGQGLEWMGRMNPKSGNAGYVQNFRGRVTMTRNTSISTAYMELSSLRSEDTAVYYCARGGRTSIWSFVFDYWGQGTLVTVSS VL: DIQMTQSPSSLSASVGDRVTITCQASQDISKHLNWYQQKPGKAPKLLIYDTSNLETGVPSRFSGSGSGTDFTFTISSLQPEDIATYNCQQYDKLPLTFGGGTKVEIKR",16.1 pM,22.6 pM
"50A12 (antibody, V domains shown) VH: EVQLVESGGGLVQPGGSLRLSCAASGFTFSSYWMSWVRQAPGKGLEWVANIKQDGSEEYYVDSVKGRFTISRDNAKNSLFLQMNSLRAEDTAVYYCARDYGDSFDYWGQGTLVTVSS VL: DIQMTQSPSSVSASVGDRVTITCRASQGIRKWLAWYQQKPGRAPKLLIYAASRLQSGVPSRFSGSGSGTDFTLTISSLRPEDFATYYCLQAHGFPWTFGQGTKVEIKR",–,2000 pM

# More lines, now with the values ahead:
"Ab IC50-Cyno PBMC (Trial 2), TNFα release after cyno PGLYRP1/PGN","Ab IC50-Cyno PBMC (Trial 1), TNFα release after cyno PGLYRP1/PGN",Binder
2340 pM,–,"61G5 (antibody, V domains shown) VH: QVQLVQSGAEVKKPGASVKVSCKASGYTFTSYDINWVRQATGQGLEWMGWMNPNSGNSGSVKKFRDRVTMTRNTSISTAYMELSSLRSEDTAVYYCVRLIGYSSAWKWSFQHWGQGTLVTVSS VL: DIQMTQSPSSLSASVGDRVTITCQASRDISKYLNWYQQKPGKAPKLQIYDASNLETGVPSRFSGSGSGTDFTFTISSLQPEDIATYYCQHYDNIPITFGQGTRLEIKR"
28.4 pM,154 pM,"57C10 (antibody, V domains shown) VH: QVQLVQSGAEVKKPGASVKVSCKASGYTFTRYDINWVRQATGQGLEWMGWLNPNSGNTGQTQKFRGRVTMTRNTSINTAYMELSSLRSEDTAVYYCARGGYTSAWRWYFDLWGRGTLVTVSS VL: DIQMTQSPSSLSASVGDRVTITCQASQDINNHLNWYQQKPGKAPKLLIYDVSNLETGVPSSFSGSGCGTDFTFTISSLQPEDIATYFCQQYDKLPLTFGGGTKVEIEG"
17.4 pM,46.9 pM,"61B12 (antibody, V domains shown) VH: QVQLVQSGAEVTKPGASVKVSCKASGYTFTRYDINWVRQATGQGLEWMGWMNPNSGNSGSVQKFRGRVTMTRNTSITTVYMELSSLRSDDTAVYYCARGGISSSWHWAFDIWGQGTMVTVSS VL: DIQMTQSPSSLSASVGDRVTITCQASQDINNHLNWYQQKPGKAPKLLIYGAYTLETGVPSRFSGSGSGTDFTFTISSLQPEDIATYYCQQYDKLPLTFGGGTKVEIKR"
266 pM,732 pM,"49A2 (antibody, V domains shown) VH: EVQLVESGGGLVQPGGSLRLSCAASGFTFSSNWMSWVRQAPGKGLDWMASMKQDGSEIYYVDSVKGRFTISRDNAKNSLHLQMNSLRAEDTAVYYCVRGGWRFESWGQGALVTVSS VL: EIVMTQSPATLSVSPGERATLSCRASQSVSSNLAWYQQKSGQAPRLLIYGASIRATGIPARVSGSGSGTEFTFTISSLQSEDFAVYYCQQYKNWPLTLGGGTKVEIKR"
